Data on 1 molecule can be found in paper PMC11117858, “APPROACH: Sensitive Detection of Exosomal Biomarkers by Aptamer-Mediated Proximity Ligation Assay and Time-Resolved Förster Resonance Energy Transfer”.

The data set has as its target CD63 on SH-SY5Y exosomes (UniProt P08962 2-238). Nature of the data set: flow cytometry on exosome-coated microspheres; 200 nM probe; 5 mM Mg2+; about 10^3-fold (printed 103-fold) fluorescence over control and MU-Cy5; 1x PBS, 5 mM MgCl2, 0.2% BSA (w/v), 37 C, 1 h; exosome-coated microspheres blocked with glycine/BSA; pH not stated. The settings on record: protein: native; label: 3' Cy5.

CD63 on SH-SY5Y exosomes, sequence (P08962 2-238): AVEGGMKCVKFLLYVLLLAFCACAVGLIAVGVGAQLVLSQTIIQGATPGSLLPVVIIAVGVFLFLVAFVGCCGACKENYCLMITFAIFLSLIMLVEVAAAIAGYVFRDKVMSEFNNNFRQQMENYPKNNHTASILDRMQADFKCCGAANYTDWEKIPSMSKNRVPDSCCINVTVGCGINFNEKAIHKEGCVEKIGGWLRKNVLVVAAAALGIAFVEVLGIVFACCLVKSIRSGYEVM

B1: Apt-CD63-Cy5 (ssDNA)
DNA: ATATACACCCCACCTCGCTCCCGTGACACTAATGCTATTTTTTTTTTTTTTTGACGCTAATAGTTAAGACGCT
As to B1, the binding result is listed as “binds”.
